{"source": "patent US20130130379A1", "about": "(published 2013)", "molecules": {"B1": {"name": "PMPLG26-A6 (VHH)", "VHH": "EVQLVESGGGLVQAGGSLRLSCAASRSRSSFDDMGWYRQAPGKQREFVGGITLGGSTIYADSVKGRFTISMDSARNTGYLQMNSLKPEDTAVYYCNAALDGYSGSSWGQGTQVTVSS"}, "B2": {"name": "PMPLG23-A3 (VHH)", "VHH": "EVQLVESGGGLVQAGGSLRLSCAASGLTFSNYAMGWFRQAPGKEREWVASINWSGGSTYYEDSVEGRFTISRDNAKNTVNLQMNSLKPEDTAVYYCAAKRGHYSREYDYWGQGTQVTVSS"}, "B3": {"name": "01C10 (VHH)", "VHH": "EVQLVESGGGLVQTGASLRLSCAASGRTFSNYAMGWFRQAPGKERERVAAITPRAFTTYYADSVKGRFTISRDNAKNTAYLQMVSLKPEDTAVYYCAAQLVGSGSNLGRQESYAYWGQGTQVTVSS", "notes": "Group 1 anti-CXCR7 Nanobody; also called Nanobody 01C10"}, "B4": {"name": "238D4-20GS-238D4 (VHH)", "chain": "EVQLMESGGGLVQAGGSLRLSCAASGRTFNNYAMGWFRRAPGKEREFVAAITRSGVRSGVSAIYGDSVKDRFTISRDNAKNTLYLQMNSLKPEDTAVYTCAASAIGSGALRRFEYDYSGQGTQVTVSSGGGGSGGGGSGGGGSGGGGSEVQLMESGGGLVQAGGSLRLSCAASGRTFNNYAMGWFRRAPGKEREFVAAITRSGVRSGVSAIYGDSVKDRFTISRDNAKNTLYLQMNSLKPEDTAVYTCAASAIGSGALRRFEYDYSGQGTQVTVSS", "notes": "also called L13"}, "B5": {"name": "LGPMP6_H4 (VHH)", "VHH": "EVQLVESGGGLVQAGGSLRLACAASGSIFSFNAMGWYRQAPGKQRELLAVITRDGITKYADSVKGRFTISRDNAKNTMYLQMNSLKPEDTAVYYCHTGLPTGRGSHSDYWGQGTQVTVSS"}, "B6": {"name": "08A05 (VHH)", "VHH": "EVQLVESGGGLVQAGDSLRLSCAASGLTFSNYDMGWFRQAPGKEREFVGASWWSGGAPYYSDSVKGRFTISRDNAKNTVYLQANSLRPEDTAVYYCAAKRLRSFASGGSYDYWGQGTQVTVSS", "notes": "Group 2 anti-CXCR7 Nanobody; also called Nanobody 08A05"}, "B7": {"name": "LGPMP6_B7 (VHH)", "VHH": "EVQLVESGGGLVQAGGSLRLSCAASGRTLRNYDMGWFRQAPGKEREFVATIRWSTSETYYADSVKGRFTISSDNAKNTVDLQMNSLTPGDTGVYYCAARSVYSYDYNYWGQGTQVTVSS"}, "B8": {"name": "LGPMP5_G11 (VHH)", "VHH": "EVQLVKSGGGLVQAGGSLRLSCAASGRTLSNYDMGWFRQAPGKEREFVATIRWSTGETYYTDSVKGRFTISKDNTKNTVDLQMNSLTPEDTAVYYCASRSVYSYEYNYWGQGTQVTVSS"}, "B9": {"name": "PMPLG22-A3 (VHH)", "VHH": "EVQLVESGGGLVQAGGSLRLSCAASGNIFANNIMGWYRQPPGKEREFVAHVSHDGDSMYAVSVKGRFAISRKDATNLYLQMNSLKPEDTAIYFCRLLNIPTQGRMEGFWGQGTQVTVSS"}, "B10": {"name": "PMPLG26-F2 (VHH)", "VHH": "EVQLVESGGGLVQAGGSLRLSCVASGFSFDDYAIGWFRQAPGQDREPLACITSGGTRNYNPSVMARFRIDRDNSVKTVYLQINTLKPEDTAVYYCSTELDRQGGSAHECREYDTWGQGTQVTVSS"}, "B11": {"name": "08A10 (VHH)", "VHH": "EVQLVESGGGLVQAGGSLRLSCAASGSIFSIAAMGWYRQATGKQRELVATITDGGTTTYADSVKGRVTISRDRSANTVYLAMNNLKPDDTAVYYCYAYLRYTSRVPGDNYWGQGTQVTVSS", "notes": "Group 2 anti-CXCR7 Nanobody; also called Nanobody 08A10"}}, "key": {"[1]": {"target": "parathyroid hormone receptor (PTHR1)", "sequence (Q03431 27-593)": "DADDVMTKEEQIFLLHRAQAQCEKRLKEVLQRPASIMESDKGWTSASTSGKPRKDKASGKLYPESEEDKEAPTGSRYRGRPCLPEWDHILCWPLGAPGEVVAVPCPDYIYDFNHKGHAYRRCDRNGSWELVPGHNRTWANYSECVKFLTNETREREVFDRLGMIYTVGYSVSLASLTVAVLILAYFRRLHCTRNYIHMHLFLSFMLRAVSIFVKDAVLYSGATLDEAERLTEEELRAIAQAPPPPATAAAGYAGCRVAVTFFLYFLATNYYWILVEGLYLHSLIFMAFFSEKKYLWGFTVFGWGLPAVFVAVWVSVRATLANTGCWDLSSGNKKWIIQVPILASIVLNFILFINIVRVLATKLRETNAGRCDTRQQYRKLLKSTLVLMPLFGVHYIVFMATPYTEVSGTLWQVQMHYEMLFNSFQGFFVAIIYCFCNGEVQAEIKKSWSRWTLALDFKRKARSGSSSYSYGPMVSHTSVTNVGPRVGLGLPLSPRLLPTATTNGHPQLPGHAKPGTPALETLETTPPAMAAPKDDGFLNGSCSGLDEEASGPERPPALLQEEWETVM", "assay": "Biacore (SPR); PTHR + CaCl2; the table names no quantity; upper end of the range"}, "[2]": {"target": "parathyroid hormone receptor (PTHR1)", "assay": "Biacore (SPR); PTHR - CaCl2; the table names no quantity; upper end of the range"}, "[3]": {"target": "parathyroid hormone receptor (PTHR1)", "assay": "Biacore (SPR); PTHR + CaCl2; the table names no quantity; lower end of the range"}, "[4]": {"target": "parathyroid hormone receptor (PTHR1)", "assay": "Biacore (SPR); PTHR - CaCl2; the table names no quantity; lower end of the range"}, "Human CXCR4 [5]": {"target": "T1, Human CXCR4 (human, UniProt P61073-2 2-356)", "T1 construct": "also called hCXCR4", "T1 sequence (P61073 other isoform, or with tags, fused parts or gaps)": "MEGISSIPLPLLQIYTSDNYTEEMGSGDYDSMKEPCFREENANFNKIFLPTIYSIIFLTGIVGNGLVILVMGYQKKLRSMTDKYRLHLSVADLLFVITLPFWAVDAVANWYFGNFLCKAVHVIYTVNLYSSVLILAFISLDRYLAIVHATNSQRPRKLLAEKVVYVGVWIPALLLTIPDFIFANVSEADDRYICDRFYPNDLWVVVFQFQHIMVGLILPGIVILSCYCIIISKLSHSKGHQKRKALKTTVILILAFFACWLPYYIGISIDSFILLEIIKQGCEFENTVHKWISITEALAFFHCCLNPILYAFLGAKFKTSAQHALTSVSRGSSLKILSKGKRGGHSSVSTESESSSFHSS", "assay": "membrane binding experiments, displacement of 125I-CXCL12"}, "[6]": {"target": "parathyroid hormone receptor (PTHR1)", "assay": "Biacore (SPR); PTHR - CaCl2; the table names no quantity"}, "Human CXCR7": {"target": "T2, Human CXCR7 (human, UniProt P25106 1-362)", "T2 construct": "also called hCXCR7", "T2 sequence (P25106 whole entry)": "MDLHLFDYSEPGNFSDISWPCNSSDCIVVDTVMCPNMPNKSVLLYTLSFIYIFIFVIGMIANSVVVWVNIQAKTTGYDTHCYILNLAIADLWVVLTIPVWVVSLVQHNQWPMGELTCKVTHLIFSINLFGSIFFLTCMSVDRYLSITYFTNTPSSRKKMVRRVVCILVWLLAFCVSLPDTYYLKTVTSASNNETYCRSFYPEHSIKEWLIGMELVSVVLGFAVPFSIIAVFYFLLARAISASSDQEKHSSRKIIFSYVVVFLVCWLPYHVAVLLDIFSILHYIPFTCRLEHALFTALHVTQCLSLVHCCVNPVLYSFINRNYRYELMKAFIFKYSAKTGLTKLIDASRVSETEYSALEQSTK", "assay": "phage ELISA and FACS"}, "Human CXCR4 [7]": {"target": "T1, Human CXCR4", "assay": "displacement of [125I]-CXCL12, membranes from HEK293T cells transiently expressing CXCR4; n=4"}, "[8]": {"target": "Cannabinoid Receptor 1 (CB1R)", "sequence (P47746 whole entry)": "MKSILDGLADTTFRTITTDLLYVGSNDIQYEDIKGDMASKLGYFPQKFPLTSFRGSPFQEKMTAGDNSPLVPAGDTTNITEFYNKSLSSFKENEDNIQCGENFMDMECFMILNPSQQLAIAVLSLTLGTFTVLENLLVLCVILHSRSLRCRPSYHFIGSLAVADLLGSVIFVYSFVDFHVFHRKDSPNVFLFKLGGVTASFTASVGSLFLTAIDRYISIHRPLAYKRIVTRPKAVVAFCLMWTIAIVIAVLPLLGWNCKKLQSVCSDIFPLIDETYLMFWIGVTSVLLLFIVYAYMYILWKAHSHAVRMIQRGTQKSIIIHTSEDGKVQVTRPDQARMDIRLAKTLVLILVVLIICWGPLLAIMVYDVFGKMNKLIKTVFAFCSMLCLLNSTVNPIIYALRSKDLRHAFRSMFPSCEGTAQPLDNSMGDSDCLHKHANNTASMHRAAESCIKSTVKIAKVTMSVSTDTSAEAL", "assay": "Biacore (SPR); the table names no quantity, heading 'Binding of clones against CB1R'"}, "[9]": {"target": "parathyroid hormone receptor (PTHR1)", "assay": "Biacore (SPR); PTHR + CaCl2; the table names no quantity"}, "[10]": {"target": "parathyroid hormone receptor (PTHR1)", "assay": "Biacore (SPR); PTHR Fos12; the table names no quantity"}}, "data": [{"molecule": "PTH (1-34) (ligand) (from UniProt P01270 32-65) (peptide)", "values": [{"measurement": "Kd", "setting": "[1]", "result": "0.2 to 16", "unit": "nM"}, {"measurement": "Kd", "setting": "[2]", "result": "4 to 23", "unit": "nM"}, {"measurement": "Kd", "setting": "[3]", "result": "0.2 to 16", "unit": "nM"}, {"measurement": "Kd", "setting": "[4]", "result": "4 to 23", "unit": "nM"}]}, {"molecule": "mAb 12G5 (antibody)", "values": [{"measurement": "displacement of radiolabeled 125I-CXCL12", "setting": "Human CXCR4 [5]", "result": 50, "unit": "%"}]}, {"molecule": "B1", "values": [{"measurement": "Kd", "setting": "[6]", "result": 17, "unit": "nM"}]}, {"molecule": "B2", "values": [{"measurement": "Kd", "setting": "[6]", "result": 22, "unit": "nM"}]}, {"molecule": "B3", "values": [{"measurement": "binding result", "setting": "Human CXCR7", "result": "binds"}]}, {"molecule": "B4", "values": [{"measurement": "Ki", "setting": "Human CXCR4 [7]", "result": 1, "unit": "nM"}]}, {"molecule": "B5", "values": [{"measurement": "Kd", "setting": "[8]", "result": 36, "unit": "nM"}]}, {"molecule": "B6", "values": [{"measurement": "binding result", "setting": "Human CXCR7", "result": "binds"}]}, {"molecule": "B7", "values": [{"measurement": "Kd", "setting": "[8]", "result": 12, "unit": "nM"}]}, {"molecule": "B8", "values": [{"measurement": "Kd", "setting": "[8]", "result": 12, "unit": "nM"}]}, {"molecule": "B9", "values": [{"measurement": "Kd", "setting": "[9]", "result": 9, "unit": "nM"}, {"measurement": "Kd", "setting": "[6]", "result": 17, "unit": "nM"}]}, {"molecule": "B10", "values": [{"measurement": "Kd", "setting": "[10]", "result": 360, "unit": "nM"}, {"measurement": "Kd", "setting": "[9]", "result": 70, "unit": "nM"}]}, {"molecule": "B11", "values": [{"measurement": "binding result", "setting": "Human CXCR7", "result": "binds"}]}]}
